From PMC3408606 (Thrombosis and haemostasis, 2011)

System: platelets
Assay: Platelet aggregation
Assay type: cell-based, human

B1: ApoD: plasma lipocalin constituent of HDL, recombinant 6xHis, expressed in HEK293 cells (protein, UniProt P05090 21-189, looked up)
Apolipoprotein D: QAFHLGKCPNPPVQENFDVNKYLGRWYEIEKIPTTFENGRCIQANYSLMENGKIKVLNQELRADGTVNQIEGEATPVNLTEPAKLEVKFSWFMPSAPYWILATDYENYALVYSCTCIIQLFHVDFAWILARNPNLPPETVDSLKNILTSNNIDVKKMTVTDQVNCPKLS
modifications: 6xHis tag
did not inhibit: Inhibition of AA-induced platelet aggregation (low doses of AA, ApoD expressed in HEK293 cells) | Inhibition of U46619-induced platelet aggregation (low doses of U46619, ApoD expressed in HEK293 cells) | Inhibition of collagen-induced platelet aggregation (low doses of collagen, ApoD expressed in HEK293 cells)
